# Measured values published in patent publication US20240270846A1 (published 2024).
# Target: T1, CD3 epsilon homodimer protein (UniProt P07766 23-126)
# T1 construct: Construct of the homodimer is not described; also called CD3 (CD3 epsilon)
# Experiment: SPR Biacore T200, CD3e homodimer on chip, antibody analyte;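 note: CD3 epsilon homodimer amine-coupled on CM4 sensor chip, antibodies injected as analyte at 25 °C in HBS-EP+, ratio ≥0.8 taken as binding retained versus unaltered parent antibody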
# T1 sequence (P07766 23-126): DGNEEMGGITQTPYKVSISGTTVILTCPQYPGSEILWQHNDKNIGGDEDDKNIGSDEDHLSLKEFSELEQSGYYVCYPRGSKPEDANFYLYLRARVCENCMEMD
row,ratio of amounts bound (altered form/GLS3000),Binder
1,0.71,"GLS3000 V94F one-arm antibody (antibody, human IgG1, kappa, L234A L235A, N297A, name in Kabat numbering) light: DIVMTQSPLSLPVTPGEPASISCRSSQSLVHSNRNTYLHWYQQKPGQAPRLLIYKVSNRFSGVPDRFSGSGSGTDFTLKISRVEAEDVGVYYCGQGTQFPYTFGQGTKLEIKRTVAAPSVFIFPPSDEQLKSGTASVVCLLNNFYPREAKVQWKVDNALQSGNSQESVTEQDSKDSTYSLSSTLTLSKADYEKHKVYACEVTHQGLSSPVTKSFNRGEC heavy: QVQLVESGGGVVQPGRSLRLSCAASGFTFSNAWMHWVRQAPGKGLEWVAQIKAKSNNYATYYAESVKGRFTISRDDSKNSLYLQMNSLKTEDTAVYYCRYVHYGAYYGVDAWGQGTTVTVSSASTKGPSVFPLAPSSKSTSGGTAALGCLVKDYFPEPVTVSWNSGALTSGVHTFPAVLQSSGLYSLSSVVTVPSSSLGTQTYICNVNHKPSNTKVDKKVEPKSCDKTHTCPPCPAPEAAGGPSVFLFPPKPKDTLMISRTPEVTCVVVDVSHEDPEVKFNWYVDGVEVHNAKTKPREEQYASTYRVVSVLTVLHQDWLNGKEYKCKVSNKALPAPIEKTISKAKGQPREPQVYTLPPSRCELTKNQVSLSCAVKGFYPSDIAVEWESNGQPENNYKTTPPVLDSDGSFFLVSKLTVDKSRWQQGNVFSCSVMHEALHNHYTQKSLSLSPDYKDDDDK EPKSSDKTHTCPPCPAPELLGGPSVFLFPPKPKDTLMISRTPEVTCVVVDVSHEDPEVKFNWYVDGVEVHNAKTKPREEQYNSTYRVVSVLTVLHQDWLNGKEYKCKVSNKALPAPIEKTISKAKGQPREPQVCTLPPSRDELTKNQVSLWCLVKGFYPSDIAVEWESNGQPENNYKTTPPVLDSDGSFFLYSKLTVDKSRWQQGNVFSCSVMHEALHNRYTQKSLSLSP"
2,0.44,"GLS3000 V94L one-arm antibody (antibody, human IgG1, kappa, L234A L235A, N297A, name in Kabat numbering) light: DIVMTQSPLSLPVTPGEPASISCRSSQSLVHSNRNTYLHWYQQKPGQAPRLLIYKVSNRFSGVPDRFSGSGSGTDFTLKISRVEAEDVGVYYCGQGTQLPYTFGQGTKLEIKRTVAAPSVFIFPPSDEQLKSGTASVVCLLNNFYPREAKVQWKVDNALQSGNSQESVTEQDSKDSTYSLSSTLTLSKADYEKHKVYACEVTHQGLSSPVTKSFNRGEC heavy: QVQLVESGGGVVQPGRSLRLSCAASGFTFSNAWMHWVRQAPGKGLEWVAQIKAKSNNYATYYAESVKGRFTISRDDSKNSLYLQMNSLKTEDTAVYYCRYVHYGAYYGVDAWGQGTTVTVSSASTKGPSVFPLAPSSKSTSGGTAALGCLVKDYFPEPVTVSWNSGALTSGVHTFPAVLQSSGLYSLSSVVTVPSSSLGTQTYICNVNHKPSNTKVDKKVEPKSCDKTHTCPPCPAPEAAGGPSVFLFPPKPKDTLMISRTPEVTCVVVDVSHEDPEVKFNWYVDGVEVHNAKTKPREEQYASTYRVVSVLTVLHQDWLNGKEYKCKVSNKALPAPIEKTISKAKGQPREPQVYTLPPSRCELTKNQVSLSCAVKGFYPSDIAVEWESNGQPENNYKTTPPVLDSDGSFFLVSKLTVDKSRWQQGNVFSCSVMHEALHNHYTQKSLSLSPDYKDDDDK EPKSSDKTHTCPPCPAPELLGGPSVFLFPPKPKDTLMISRTPEVTCVVVDVSHEDPEVKFNWYVDGVEVHNAKTKPREEQYNSTYRVVSVLTVLHQDWLNGKEYKCKVSNKALPAPIEKTISKAKGQPREPQVCTLPPSRDELTKNQVSLWCLVKGFYPSDIAVEWESNGQPENNYKTTPPVLDSDGSFFLYSKLTVDKSRWQQGNVFSCSVMHEALHNRYTQKSLSLSP"
3,0.57,"GLS3000 V94K one-arm antibody (antibody, human IgG1, kappa, L234A L235A, N297A, name in Kabat numbering) light: DIVMTQSPLSLPVTPGEPASISCRSSQSLVHSNRNTYLHWYQQKPGQAPRLLIYKVSNRFSGVPDRFSGSGSGTDFTLKISRVEAEDVGVYYCGQGTQKPYTFGQGTKLEIKRTVAAPSVFIFPPSDEQLKSGTASVVCLLNNFYPREAKVQWKVDNALQSGNSQESVTEQDSKDSTYSLSSTLTLSKADYEKHKVYACEVTHQGLSSPVTKSFNRGEC heavy: QVQLVESGGGVVQPGRSLRLSCAASGFTFSNAWMHWVRQAPGKGLEWVAQIKAKSNNYATYYAESVKGRFTISRDDSKNSLYLQMNSLKTEDTAVYYCRYVHYGAYYGVDAWGQGTTVTVSSASTKGPSVFPLAPSSKSTSGGTAALGCLVKDYFPEPVTVSWNSGALTSGVHTFPAVLQSSGLYSLSSVVTVPSSSLGTQTYICNVNHKPSNTKVDKKVEPKSCDKTHTCPPCPAPEAAGGPSVFLFPPKPKDTLMISRTPEVTCVVVDVSHEDPEVKFNWYVDGVEVHNAKTKPREEQYASTYRVVSVLTVLHQDWLNGKEYKCKVSNKALPAPIEKTISKAKGQPREPQVYTLPPSRCELTKNQVSLSCAVKGFYPSDIAVEWESNGQPENNYKTTPPVLDSDGSFFLVSKLTVDKSRWQQGNVFSCSVMHEALHNHYTQKSLSLSPDYKDDDDK EPKSSDKTHTCPPCPAPELLGGPSVFLFPPKPKDTLMISRTPEVTCVVVDVSHEDPEVKFNWYVDGVEVHNAKTKPREEQYNSTYRVVSVLTVLHQDWLNGKEYKCKVSNKALPAPIEKTISKAKGQPREPQVCTLPPSRDELTKNQVSLWCLVKGFYPSDIAVEWESNGQPENNYKTTPPVLDSDGSFFLYSKLTVDKSRWQQGNVFSCSVMHEALHNRYTQKSLSLSP"
4,0.48,"GLS3000 V94G one-arm antibody (antibody, human IgG1, kappa, L234A L235A, N297A, name in Kabat numbering) light: DIVMTQSPLSLPVTPGEPASISCRSSQSLVHSNRNTYLHWYQQKPGQAPRLLIYKVSNRFSGVPDRFSGSGSGTDFTLKISRVEAEDVGVYYCGQGTQGPYTFGQGTKLEIKRTVAAPSVFIFPPSDEQLKSGTASVVCLLNNFYPREAKVQWKVDNALQSGNSQESVTEQDSKDSTYSLSSTLTLSKADYEKHKVYACEVTHQGLSSPVTKSFNRGEC heavy: QVQLVESGGGVVQPGRSLRLSCAASGFTFSNAWMHWVRQAPGKGLEWVAQIKAKSNNYATYYAESVKGRFTISRDDSKNSLYLQMNSLKTEDTAVYYCRYVHYGAYYGVDAWGQGTTVTVSSASTKGPSVFPLAPSSKSTSGGTAALGCLVKDYFPEPVTVSWNSGALTSGVHTFPAVLQSSGLYSLSSVVTVPSSSLGTQTYICNVNHKPSNTKVDKKVEPKSCDKTHTCPPCPAPEAAGGPSVFLFPPKPKDTLMISRTPEVTCVVVDVSHEDPEVKFNWYVDGVEVHNAKTKPREEQYASTYRVVSVLTVLHQDWLNGKEYKCKVSNKALPAPIEKTISKAKGQPREPQVYTLPPSRCELTKNQVSLSCAVKGFYPSDIAVEWESNGQPENNYKTTPPVLDSDGSFFLVSKLTVDKSRWQQGNVFSCSVMHEALHNHYTQKSLSLSPDYKDDDDK EPKSSDKTHTCPPCPAPELLGGPSVFLFPPKPKDTLMISRTPEVTCVVVDVSHEDPEVKFNWYVDGVEVHNAKTKPREEQYNSTYRVVSVLTVLHQDWLNGKEYKCKVSNKALPAPIEKTISKAKGQPREPQVCTLPPSRDELTKNQVSLWCLVKGFYPSDIAVEWESNGQPENNYKTTPPVLDSDGSFFLYSKLTVDKSRWQQGNVFSCSVMHEALHNRYTQKSLSLSP"
5,0.78,"GLS3000 V94H one-arm antibody (antibody, human IgG1, kappa, L234A L235A, N297A, name in Kabat numbering) light: DIVMTQSPLSLPVTPGEPASISCRSSQSLVHSNRNTYLHWYQQKPGQAPRLLIYKVSNRFSGVPDRFSGSGSGTDFTLKISRVEAEDVGVYYCGQGTQHPYTFGQGTKLEIKRTVAAPSVFIFPPSDEQLKSGTASVVCLLNNFYPREAKVQWKVDNALQSGNSQESVTEQDSKDSTYSLSSTLTLSKADYEKHKVYACEVTHQGLSSPVTKSFNRGEC heavy: QVQLVESGGGVVQPGRSLRLSCAASGFTFSNAWMHWVRQAPGKGLEWVAQIKAKSNNYATYYAESVKGRFTISRDDSKNSLYLQMNSLKTEDTAVYYCRYVHYGAYYGVDAWGQGTTVTVSSASTKGPSVFPLAPSSKSTSGGTAALGCLVKDYFPEPVTVSWNSGALTSGVHTFPAVLQSSGLYSLSSVVTVPSSSLGTQTYICNVNHKPSNTKVDKKVEPKSCDKTHTCPPCPAPEAAGGPSVFLFPPKPKDTLMISRTPEVTCVVVDVSHEDPEVKFNWYVDGVEVHNAKTKPREEQYASTYRVVSVLTVLHQDWLNGKEYKCKVSNKALPAPIEKTISKAKGQPREPQVYTLPPSRCELTKNQVSLSCAVKGFYPSDIAVEWESNGQPENNYKTTPPVLDSDGSFFLVSKLTVDKSRWQQGNVFSCSVMHEALHNHYTQKSLSLSPDYKDDDDK EPKSSDKTHTCPPCPAPELLGGPSVFLFPPKPKDTLMISRTPEVTCVVVDVSHEDPEVKFNWYVDGVEVHNAKTKPREEQYNSTYRVVSVLTVLHQDWLNGKEYKCKVSNKALPAPIEKTISKAKGQPREPQVCTLPPSRDELTKNQVSLWCLVKGFYPSDIAVEWESNGQPENNYKTTPPVLDSDGSFFLYSKLTVDKSRWQQGNVFSCSVMHEALHNRYTQKSLSLSP"
6,0.66,"GLS3000 V94I one-arm antibody (antibody, human IgG1, kappa, L234A L235A, N297A, name in Kabat numbering) light: DIVMTQSPLSLPVTPGEPASISCRSSQSLVHSNRNTYLHWYQQKPGQAPRLLIYKVSNRFSGVPDRFSGSGSGTDFTLKISRVEAEDVGVYYCGQGTQIPYTFGQGTKLEIKRTVAAPSVFIFPPSDEQLKSGTASVVCLLNNFYPREAKVQWKVDNALQSGNSQESVTEQDSKDSTYSLSSTLTLSKADYEKHKVYACEVTHQGLSSPVTKSFNRGEC heavy: QVQLVESGGGVVQPGRSLRLSCAASGFTFSNAWMHWVRQAPGKGLEWVAQIKAKSNNYATYYAESVKGRFTISRDDSKNSLYLQMNSLKTEDTAVYYCRYVHYGAYYGVDAWGQGTTVTVSSASTKGPSVFPLAPSSKSTSGGTAALGCLVKDYFPEPVTVSWNSGALTSGVHTFPAVLQSSGLYSLSSVVTVPSSSLGTQTYICNVNHKPSNTKVDKKVEPKSCDKTHTCPPCPAPEAAGGPSVFLFPPKPKDTLMISRTPEVTCVVVDVSHEDPEVKFNWYVDGVEVHNAKTKPREEQYASTYRVVSVLTVLHQDWLNGKEYKCKVSNKALPAPIEKTISKAKGQPREPQVYTLPPSRCELTKNQVSLSCAVKGFYPSDIAVEWESNGQPENNYKTTPPVLDSDGSFFLVSKLTVDKSRWQQGNVFSCSVMHEALHNHYTQKSLSLSPDYKDDDDK EPKSSDKTHTCPPCPAPELLGGPSVFLFPPKPKDTLMISRTPEVTCVVVDVSHEDPEVKFNWYVDGVEVHNAKTKPREEQYNSTYRVVSVLTVLHQDWLNGKEYKCKVSNKALPAPIEKTISKAKGQPREPQVCTLPPSRDELTKNQVSLWCLVKGFYPSDIAVEWESNGQPENNYKTTPPVLDSDGSFFLYSKLTVDKSRWQQGNVFSCSVMHEALHNRYTQKSLSLSP"
